This data set can be described thus: amyloid nucleation score (Sup35N fusion, yeast selection) (log enrichment); library NNK1; higher = more nucleation; inactive = no reads after selection. In short, it runs like this:
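Peptides of 20 random codons, each fused to Sup35N, were expressed in psi-negative yeast. Cells were induced with 100 μM copper sulfate for 24 hours and grown 7 days at 30°C on medium lacking adenine and uracil, and plasmid inserts before and after selection were Illumina-sequenced. Nucleation scores are DiMSum log enrichments of output over input reads, centred on the mode score of non-aggregating sequences, and sequences under 100 input reads were excluded.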

± gives the uncertainty stated by the source.

For QFVQAGRKLGNNVDGWKYVC, the amyloid nucleation score is -0.997 ± 0.5.
TNTSWVFVVCIEHKEMDQAV yielded an amyloid nucleation score of 5.9 ± 0.086.
Consider THTYGGDG, for which the amyloid nucleation score is -0.096 ± 0.74.
Regarding NPPVWPSTFQE, the amyloid nucleation score is -0.159 ± 0.58.
In turn, SRFPYKKSVRTDSGRMSM displayed an amyloid nucleation score of -0.393 ± 0.86.
The substance VSYRTSMSVVLRCGFYCSAY had an amyloid nucleation score of 3.22 ± 0.14.
ECFDANIWFWSCPMVHYG: the amyloid nucleation score amounted to 0.904 ± 0.19.
Substance DRNLDEWGEASL registered an amyloid nucleation score of -0.145 ± 1.5.
As to VIMCYR, the amyloid nucleation score was -0.309 ± 0.29.
In the case of LHMTFFTPVDLVVQRTDFRL, the amyloid nucleation score stood at 0.971 ± 0.52.
The substance RKFVC registered an amyloid nucleation score of -0.729 ± 1.7.
The same measure for LDYSSRSPLTDLST: 0.041 ± 0.65; for QTTTLYRFCCEWQSPASVVM: 0.333 ± 0.97; for CSAKNLYVTTQFSLVLFVGS: 6.422 ± 0.052.
The substance MSYIQRMGVYLTITGLRGMK gave an amyloid nucleation score of -0.527 ± 1.
Consider NYTTSMNPLHFVACK, for which the amyloid nucleation score result is “inactive”.
The substance WVKCRDWYSILF gave an amyloid nucleation score of 5.19 ± 0.089.
VTRLLTLPWHCRRIYLVNLY: the amyloid nucleation score was -0.09 ± 0.97.
In turn, HRCGLPASFIHHFVCDRAVG came in with an amyloid nucleation score of -0.686 ± 1.4.
For the substance MEGRVMGKRVAVY, the amyloid nucleation score is -0.155 ± 0.59.
DHHRFRGLL: the amyloid nucleation score stood at 0.657 ± 0.62.
FGKFKRRRGMSKMNRMEITK had an amyloid nucleation score of -0.841 ± 1.5.
In the case of LSMGRYRPKRFLLRNTSDTL, the amyloid nucleation score is -0.438 ± 0.44.
In turn, WVVISMSVRHVLACNLLPIR came in with an amyloid nucleation score of -0.013 ± 0.76.
With CNVGLKVYLADISSGSVCYL, the amyloid nucleation score is 4.39 ± 0.075.
Substance KRARGDFYILEWQSDLDNLG gave an amyloid nucleation score of -0.755 ± 0.67.
Regarding LSVICMFTY, the amyloid nucleation score came out at 4.74 ± 0.052.
In the case of MNIVIHIPNMRMAAKD it was 7.17 ± 0.08.
The same measure for EQCTLVVSYGVWGHRSSCVG: 0.93 ± 0.45; for MTTRIFSLKIA: 0.066 ± 0.81.
In the case of SFSFKCDYYVPCRRYIFVIL it was -1.3 ± 1.1; in that of RNHDANFPCRVDGPLQSTVR, 0.135 ± 0.4.
Substance KTCFHNNLPKIGLPHHLHNG gave an amyloid nucleation score of -1.32 ± 1.9.
In turn, TPFRDKHGGVWVV showed an amyloid nucleation score of 0.505 ± 0.56.
As for SYYNSVWTRYECAVVWT, the amyloid nucleation score was determined as 0.413 ± 1.1.
Turning to CCVGRALCHNVVS, the amyloid nucleation score stood at 0.594 ± 0.55.
VMCAT returned an amyloid nucleation score of -0.048 ± 0.59.
The substance GNCSMSVGATLEGLMVRVHI showed an amyloid nucleation score of 0.027 ± 0.68.
In the case of SGIPSVLATGYSYKF it was -0.273 ± 0.29; in that of GSNVSSTM, 0.537 ± 0.51.
Take IIRRGSRSFYIFMVTFKRRN: the amyloid nucleation score stood at 0.996 ± 0.52.
With PHSMYCGETWLSLDCQMQFM, the amyloid nucleation score is -0.009 ± 0.74.
With TMIDNPVYPSVFRVGHDTLV, the amyloid nucleation score worked out at 0.356 ± 0.3.
Turning to SLIFCSYSNDLFHSWNHKFR, the amyloid nucleation score was -0.068 ± 0.7.
For the substance EVEIFILNLLFIFPNQKARW, the amyloid nucleation score came out at 4.17 ± 0.12.
The same measure for RVIWEGNAVQTSAWGSADPK: -0.264 ± 0.64.
For LVMYCWRTYVYLRTSRGYDA, the amyloid nucleation score was 0.259 ± 0.61.
Turning to VDLALLYCDIKMQLV, the amyloid nucleation score turned out to be 1.14 ± 0.88.
In the case of DLSWGSRHY it was -0.899 ± 0.42; in that of NSIFLLSYLKLIFAVYA, “inactive”; in that of KCSFNLTLIVF, 1.77 ± 0.15.
LLLYDPREC registered an amyloid nucleation score of -1.46 ± 0.91.
The substance CLGHLLLTESIPCSFCSYWM had an amyloid nucleation score of 4.55 ± 0.075.
In the case of LIGFAGRVYGAFLQVSMTWN, the amyloid nucleation score was 3.2 ± 0.15.
For QHCARTAGVSVARVVVSNCG, the amyloid nucleation score was 0.161 ± 0.41.
As to LMRRAAVFFAGSRAGSRCLT, the amyloid nucleation score was -0.675 ± 0.4.
Substance DAEFRHGAIIGLMVGGVVIA returned an amyloid nucleation score of 3.45 ± 0.22.
With GSALPSIWSWERFRSLLRNL, the amyloid nucleation score is -0.221 ± 0.45.
NCSGSRLFLMSLSL: the amyloid nucleation score came to 6.52 ± 0.066.
In the case of NIKDRILYNVYMRGMCIYCL it was 6.137 ± 0.053; in that of FDHSIVKKSQLRGFTVVLRL, 1.22 ± 0.35; in that of FVTKGVERCRVPEVSLPCLI, -0.839 ± 1.2.
YDWAVSAS yielded an amyloid nucleation score of -0.364 ± 0.61.
Regarding RPLALRVQDSPKSFGQSP, the amyloid nucleation score stood at 0.145 ± 0.7.
The same measure for GFRSCRCVQGRANVFPYSMS: -0.103 ± 0.25; for DWVELR: -0.101 ± 0.86; for HFVASDYHNVGSA: “inactive”.
In turn, DCISRLWR yielded an amyloid nucleation score of -0.83 ± 0.89.
Substance TPLFRGFIMLQPRLRCDKFA had an amyloid nucleation score of 0.013 ± 0.31.
Regarding TGPVLTPKSCYFGHINSSCF, the amyloid nucleation score was -0.009 ± 0.29.
In the case of RPLRCWAIHYGQVYDSSAIL it was 0.987 ± 0.62.
The same measure for ALFESRPYTLSRERDKL: -0.302 ± 0.36; for RSFCRSSVIFVFP: 2.79 ± 0.19; for PHYFFS: -0.593 ± 0.39.
As to CDNQVSGLNGS, the amyloid nucleation score result was “inactive”.
The substance LMHRFPSINRLHTAPMPRAT displayed an amyloid nucleation score of 0.58 ± 1.1.
Consider GRNRRDVMSRSYSVVG, for which the amyloid nucleation score was -0.72 ± 1.1.
Consider NTQRTLIFSPMFVSRRLNLA, for which the amyloid nucleation score is 2.64 ± 0.16.
The substance ACTGARCVRDQ gave an amyloid nucleation score of 0.452 ± 0.45.
The same measure for LLIVYYNVDITQCRWFTELC: -0.16 ± 0.58; for DARSNSVLYQRCSTSRGRSG: -0.615 ± 0.84; for AEWVYITMGYAWLKRSNVVE: 0.092 ± 0.33.
The substance SCSVSNGVFCNHGRGCGFRL showed an amyloid nucleation score of 2.12 ± 0.18.
The same measure for GIKCTRFWQVPNRGDRV: -0.813 ± 0.48; for GNAVYMNYFNVLDWNWSL: 4.966 ± 0.048; for NSSMVG: -1.16 ± 1.7.
RFFNTRSGKSWPLKYLTEFF: the amyloid nucleation score was determined as 0.042 ± 0.34.
Consider SVLNNLAAPDKARLRPCNWV, for which the amyloid nucleation score came to 0.379 ± 0.54.
In the case of QKMYDILVIDLYESGDRPFV it was 0.532 ± 0.29.
In the case of TRFNFMGLYNLRMVN it was -0.777 ± 1.2; in that of SLRLARNGYIYAICRFLCYS, -1.15 ± 2.7; in that of DILCASPTLLAE, 0.161 ± 0.49.
The same measure for DMTAVYLFVTVYSYDLSC: 0.569 ± 0.14; for SVAIASLFFLSFNFVDIRLL: 0.832 ± 0.15; for IIGSIGYVKVSCDQAVRFQL: 5.01 ± 0.076.
On to DSQVL, for which the amyloid nucleation score worked out at 1.25 ± 0.56.
Take EYDLRSGEG: the amyloid nucleation score was -0.332 ± 0.46.
For the substance CFVFLFFVPLWSRNRGEYMY, the amyloid nucleation score was -0.937 ± 0.68.
On to MRQWSGQG, for which the amyloid nucleation score is 0.758 ± 1.
Substance RLYNLTSVRKFVLLSSM showed an amyloid nucleation score of 0.235 ± 0.4.
Substance THQGWYSQNEHERRWIVHSF showed an amyloid nucleation score of 0.028 ± 0.58.
For the substance GSDMIVYIYRCTVTLMGSST, the amyloid nucleation score is 3.83 ± 0.099.
In turn, VHCLLAGRKMNFGLFCINVQ displayed an amyloid nucleation score of -0.025 ± 0.68.
The same measure for YFYDLSRCLFIHCTVGSQIL: 7.769 ± 0.044; for RLFPYQFM: -0.286 ± 0.63; for ALETFNGQVMSPSSRLRIDR: -1.07 ± 0.88.
GSLWFRLGEFARTNFFNSVF showed an amyloid nucleation score of 0.05 ± 0.26.
The same measure for YGYGY: -0.217 ± 0.23.
On to EYLFLRRM, for which the amyloid nucleation score is 2.92 ± 0.089.
In the case of RRVLSRGSAVSWALSSGGD it was -0.586 ± 0.46; in that of LSEIFSCENGVVGSNSETLT, -0.107 ± 0.35; in that of VLSEVDWLSIFHGWMFGVRC, 0.434 ± 1.4.
As for YCVIHSIRLGRIHLDCFWDF, the amyloid nucleation score result was “inactive”.
In the case of HNFKCHLKSCKVSNFN it was -1.02 ± 2.4; in that of SYKLVRTLNG, “inactive”.
The same measure for REWSSYRIVRWYEMCYISTS: -0.158 ± 0.84; for SLGKLYAGDGVCMGTLPDSK: 0.017 ± 0.56; for SRGVQGMYDDYKDGGLLYLV: -0.228 ± 0.19.
The substance NEHAENDVTFQGNEDICVVM returned an amyloid nucleation score of -0.419 ± 0.34.
Substance MIFSHETSRVIGDPWGPWN returned an amyloid nucleation score of 0.056 ± 0.88.
HSCVPICNEYSAADRSYFRY gave an amyloid nucleation score of 0.343 ± 0.97.
In the case of WWHSL it was 2.01 ± 0.62; in that of GCNSMTRLLRGAWPPPYWRG, 0.274 ± 0.77; in that of RIWSLRPFRSEYLRVCFFVS, 0.437 ± 0.78.
On to NMSGMVLGLVLTATWSFMSV, for which the amyloid nucleation score was 0.588 ± 0.45.
Regarding NGLFAYVRM, the amyloid nucleation score was 0.505 ± 0.27.
In the case of GSFRMVSMLSGISWARVARF it was 3.04 ± 0.18; in that of TAALFLAMLGDYVVSNMWTT, “inactive”.
The substance SSLLKWWDIVMKGEVIHGWC had an amyloid nucleation score of -0.095 ± 0.47.
In the case of YLALVSANNASKKAVVKSTE it was -0.054 ± 0.72.
In the case of SLCFYGEQIFHN it was 2.24 ± 0.17; in that of WMFTGVRLVSK, 0.3 ± 0.43; in that of LFDNFIAHMGCSRIPYDSHS, -0.086 ± 0.3.
In turn, TGRRLERGMRLRHGDAEYCC gave an amyloid nucleation score of 0.408 ± 0.28.
As for WNGTFNVPWSFDFRCSWVGK, the amyloid nucleation score was 0.719 ± 0.79.
The same measure for PGRYSISGSEHMPVYLYTFH: “inactive”; for KAVFDNLLTCPILVIGSTPA: -0.956 ± 0.93.
RWGMFTWVYFMLYALWIMTL came in with an amyloid nucleation score of 0.042 ± 0.44.
The substance MLARKRMLNLLLRGWAYSWT returned an amyloid nucleation score of 0.09 ± 0.49.
In the case of MVAIMQISMGSAVFLYAR it was 4.24 ± 0.097.

For the origin of these results see the supplement of paper PMC12042874.
